In patent publication US20190106510A1 (CELLDEX THERAPEUTICS, published 2019):

Columns and labels:
recombinant KIT D4/D5 [1] = target: T1, recombinant KIT D4/D5 (human, UniProt P10721 26-519); assay: direct binding ELISA, plate-coated recombinant KIT D4/D5; assay #2 (supernatant)
T1 construct: also called recombinant c-Kit Ig-like domains D4/D5; recombinant polypeptide of the D4/D5 region of human KIT
Procedure: (§1) The binding affinity of the anti-KIT antibodies to the target antigen KIT Ig-like domains D4/D5 was assessed by direct binding ELISA. […] Bound antibody was detected with anti-human Ig-HRP followed by detection using TMB substrate.

recombinant KIT D4/D5 [2] = target: T1, recombinant KIT D4/D5; assay: direct binding ELISA, plate-coated recombinant KIT D4/D5; assay #1 (supernatant)
Procedure: as §1

recombinant KIT D4/D5 [3] = target: T1, recombinant KIT D4/D5; assay: direct binding ELISA, plate-coated recombinant KIT D4/D5; assay #3 (purified)
Procedure: as §1

[4] = target: full-length, wild-type human KIT expressed on CHO cells (human, UniProt P10721 26-976); assay: cell-based or functional assay
recombinant KIT D4/D5 [5] = target: T1, recombinant KIT D4/D5; assay: direct binding ELISA, plate-coated recombinant KIT D4/D5; assay #4 (purified)
Procedure: as §1

full-length, wild-type human KIT expressed on CHO cells, sequence (P10721 other isoform, or with tags, fused parts or gaps limits assumed): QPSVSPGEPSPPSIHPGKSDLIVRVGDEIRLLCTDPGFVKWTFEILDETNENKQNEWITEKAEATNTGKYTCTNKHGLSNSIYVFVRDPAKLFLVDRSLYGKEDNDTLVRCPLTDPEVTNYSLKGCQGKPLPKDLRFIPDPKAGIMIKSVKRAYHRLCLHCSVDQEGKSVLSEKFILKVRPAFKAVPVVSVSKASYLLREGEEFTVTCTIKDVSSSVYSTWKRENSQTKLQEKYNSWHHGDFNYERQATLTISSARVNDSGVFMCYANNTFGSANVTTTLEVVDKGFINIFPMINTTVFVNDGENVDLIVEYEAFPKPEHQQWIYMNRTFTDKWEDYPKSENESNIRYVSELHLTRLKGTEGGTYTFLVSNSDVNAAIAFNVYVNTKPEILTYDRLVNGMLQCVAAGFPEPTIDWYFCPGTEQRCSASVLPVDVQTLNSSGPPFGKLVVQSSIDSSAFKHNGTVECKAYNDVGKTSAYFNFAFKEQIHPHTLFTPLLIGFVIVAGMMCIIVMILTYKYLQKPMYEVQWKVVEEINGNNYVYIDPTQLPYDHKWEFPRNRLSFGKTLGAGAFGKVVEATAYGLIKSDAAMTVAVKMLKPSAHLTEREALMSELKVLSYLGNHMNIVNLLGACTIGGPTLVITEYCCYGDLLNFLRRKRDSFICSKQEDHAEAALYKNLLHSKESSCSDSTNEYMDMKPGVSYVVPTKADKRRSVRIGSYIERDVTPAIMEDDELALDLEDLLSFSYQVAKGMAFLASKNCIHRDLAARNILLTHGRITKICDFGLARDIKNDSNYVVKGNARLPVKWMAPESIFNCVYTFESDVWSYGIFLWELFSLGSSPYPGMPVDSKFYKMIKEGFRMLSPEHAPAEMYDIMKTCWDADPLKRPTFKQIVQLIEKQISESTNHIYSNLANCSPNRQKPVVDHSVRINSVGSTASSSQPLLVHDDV
T1 sequence (P10721 other isoform, or with tags, fused parts or gaps limits assumed): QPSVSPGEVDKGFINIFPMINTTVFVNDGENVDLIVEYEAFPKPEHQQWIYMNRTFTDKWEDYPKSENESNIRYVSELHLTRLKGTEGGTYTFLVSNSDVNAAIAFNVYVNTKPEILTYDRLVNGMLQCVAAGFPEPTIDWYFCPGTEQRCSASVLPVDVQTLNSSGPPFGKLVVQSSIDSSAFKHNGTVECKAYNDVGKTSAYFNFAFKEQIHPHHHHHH

| Binder | Relative binding activity (recombinant KIT D4/D5 [1]) | Relative binding activity (recombinant KIT D4/D5 [2]) | Relative binding activity (recombinant KIT D4/D5 [3]) | further results |
| --- | --- | --- | --- | --- |
| Hum1 (antibody, V domains shown, Variable regions cloned into expression vectors for human IgG1 VH chains and human V kappa chains) VH: QVQLVQSGAELKKPGASVKLSCKASGYTFTDYYINWVKQAPGKGLEWIARIYPGSGNTYYNEKFKGRATLTAEKSTSTAYMQLSSLRSEDSAVYFCARGVYYFDYWGQGTTVTVSS VL: DIVMTQSPSFLSASVGDRVTITCKASQNVRTNVAWYQQKPGKAPKALIYSASYRYSGVPDRFTGSGSGTDFTLTISSLQSEDFADYFCQQYNSYPRTFGGGTKVEIK | 0.64 relative to chimeric antibody 37C (normalized EC50) |  |  |  |
| Hum6 (antibody, V domains shown) VH: QVQLVQSGAELKKPGASVKLSCKASGYTFTDYYINWVKQAPGKGLEWIARIYPGSGNTYYNEKFKGRATLTAEKSTSTAYMQLSSLRSEDSAVYFCARGVYYFDYWGQGTTVTVSS VL: DIVMTQSPSSLSASVGDRVTITCKASQNVRTNVAWYQQKPGKAPKALIYSASYRYSGVPDRFTGSGSGTDFTLTISSLQPEDFADYFCQQYNSYPRTFGGGTKVEIK | 0.7 relative to chimeric antibody 37C (normalized EC50) | 1.15 relative to chimeric antibody 37C (normalized EC50) |  |  |
| Hum5 (antibody, V domains shown) VH: QVQLVQSGAEVKKPGASVKVSCKASGYTFTDYYINWVRQAPGKGLEWIARIYPGSGNTYYNEKFKGRVTITADKSTSTAYMELSSLRSEDTAVYFCARGVYYFDYWGQGTTVTVSS VL: DIVMTQSPSFLSASVGDRVTITCKASQNVRTNVAWYQQKPGKAPKALIYSASYRYSGVPDRFTGSGSGTDFTLTISSLQSEDFADYFCQQYNSYPRTFGGGTKVEIK | 0.93 relative to chimeric antibody 37C (normalized EC50) |  |  |  |
| Hum2 (antibody, V domains shown) VH: QVQLVQSGAEVKKPGASVKLSCKASGYTFTDYYINWVKQAPGKGLEWIARIYPGSGNTYYNEKFKGRATLTAEKSTSTAYMQLSSLRSEDTAVYFCARGVYYFDYWGQGTTVTVSS VL: DIVMTQSPSFLSASVGDRVTITCKASQNVRTNVAWYQQKPGKAPKALIYSASYRYSGVPDRFTGSGSGTDFTLTISSLQSEDFADYFCQQYNSYPRTFGGGTKVEIK | 0.79 relative to chimeric antibody 37C (normalized EC50) |  |  |  |
| Hum9 (antibody, V domains shown) VH: QVQLVQSGAEVKKPGASVKVSCKASGYTFTDYYINWVRQAPGKGLEWIARIYPGSGNTYYNEKFKGRATITADKSTSTAYMELSSLRSEDTAVYFCARGVYYFDYWGQGTTVTVSS VL: DIVMTQSPSSLSASVGDRVTITCKASQNVRTNVAWYQQKPGKAPKALIYSASYRYSGVPDRFTGSGSGTDFTLTISSLQPEDFADYFCQQYNSYPRTFGGGTKVEIK | 1 relative to chimeric antibody 37C (normalized EC50) | 1.08 relative to chimeric antibody 37C (normalized EC50) | 0.85 relative to chimeric antibody 37C (normalized EC50) | Relative blocking activity, assay #3 (96-well): IC50 of inhibition of SCF-induced KIT phosphorylation, normalized to chimeric 37M antibody [4]: 1.05 relative to chimeric 37M antibody |
| Hum7 (antibody, V domains shown) VH: QVQLVQSGAEVKKPGASVKLSCKASGYTFTDYYINWVKQAPGKGLEWIARIYPGSGNTYYNEKFKGRATLTAEKSTSTAYMQLSSLRSEDTAVYFCARGVYYFDYWGQGTTVTVSS VL: DIVMTQSPSSLSASVGDRVTITCKASQNVRTNVAWYQQKPGKAPKALIYSASYRYSGVPDRFTGSGSGTDFTLTISSLQPEDFADYFCQQYNSYPRTFGGGTKVEIK | 0.8 relative to chimeric antibody 37C (normalized EC50) | 1.12 relative to chimeric antibody 37C (normalized EC50) |  |  |
| Hum3 (antibody, V domains shown) VH: QVQLVQSGAEVKKPGASVKLSCKASGYTFTDYYINWVRQAPGKGLEWIARIYPGSGNTYYNEKFKGRATLTADKSTSTAYMQLSSLRSEDTAVYFCARGVYYFDYWGQGTTVTVSS VL: DIVMTQSPSFLSASVGDRVTITCKASQNVRTNVAWYQQKPGKAPKALIYSASYRYSGVPDRFTGSGSGTDFTLTISSLQSEDFADYFCQQYNSYPRTFGGGTKVEIK | 0.88 relative to chimeric antibody 37C (normalized EC50) |  |  |  |

More lines, main results first:

| Relative binding activity (recombinant KIT D4/D5 [1]) | Relative binding activity (recombinant KIT D4/D5 [2]) | Relative binding activity (recombinant KIT D4/D5 [3]) | Binder | further results |
| --- | --- | --- | --- | --- |
| 0.79 relative to chimeric antibody 37C (normalized EC50) | 1.22 relative to chimeric antibody 37C (normalized EC50) | 0.99 relative to chimeric antibody 37C (normalized EC50) | Hum18 (antibody, V domains shown) VH: QVQLVQSGAEVKKPGASVKLSCKASGYTFTDYYINWVRQAPGKGLEWIARIYPGSGNTYYNEKFKGRATLTADKSTSTAYMQLSSLRSEDTAVYFCARGVYYFDYWGQGTTVTVSS VL: DIVMTQSPSSLSASVGDRVTITCKASQNVRTNVAWYQQKPGKAPKSLIYSASYRYSGVPDRFSGSGSGTDFTLTISSLQPEDFATYYCQQYNSYPRTFGGGTKVEIK | Relative blocking activity, assay #2 (24-well): IC50 of inhibition of SCF-induced KIT phosphorylation, normalized to chimeric 37M antibody [4]: 1.22 relative to chimeric 37M antibody |
| 1.05 relative to chimeric antibody 37C (normalized EC50) | 1.11 relative to chimeric antibody 37C (normalized EC50) | 0.95 relative to chimeric antibody 37C (normalized EC50) | Hum19 (antibody, V domains shown) VH: QVQLVQSGAEVKKPGASVKVSCKASGYTFTDYYINWVRQAPGKGLEWIARIYPGSGNTYYNEKFKGRATITADKSTSTAYMELSSLRSEDTAVYFCARGVYYFDYWGQGTTVTVSS VL: DIVMTQSPSSLSASVGDRVTITCKASQNVRTNVAWYQQKPGKAPKSLIYSASYRYSGVPDRFSGSGSGTDFTLTISSLQPEDFATYYCQQYNSYPRTFGGGTKVEIK | Relative blocking activity, assay #1 (24-well): IC50 of inhibition of SCF-induced KIT phosphorylation, normalized to chimeric 37M antibody [4]: 1.09 relative to chimeric 37M antibody; Relative blocking activity, assay #3 (96-well): IC50 of inhibition of SCF-induced KIT phosphorylation, normalized to chimeric 37M antibody [4]: 0.98 relative to chimeric 37M antibody; Relative blocking activity, assay #4 (96-well): IC50 of inhibition of SCF-induced KIT phosphorylation, normalized to chimeric 37M antibody [4]: 1.4 relative to chimeric 37M antibody; Relative binding activity (recombinant KIT D4/D5 [5]): 0.85 relative to chimeric antibody 37C (normalized EC50) |
| 0.7 relative to chimeric antibody 37C (normalized EC50) | 0.8 relative to chimeric antibody 37C (normalized EC50) |  | Hum20 (antibody, V domains shown) VH: QVQLVQSGAEVKKPGASVKVSCKASGYTFTDYYINWVRQAPGKGLEWIARIYPGSGNTYYNEKFKGRVTITADKSTSTAYMELSSLRSEDTAVYFCARGVYYFDYWGQGTTVTVSS VL: DIVMTQSPSSLSASVGDRVTITCKASQNVRTNVAWYQQKPGKAPKSLIYSASYRYSGVPDRFSGSGSGTDFTLTISSLQPEDFATYYCQQYNSYPRTFGGGTKVEIK |  |
| 0.78 relative to chimeric antibody 37C (normalized EC50) | 1.11 relative to chimeric antibody 37C (normalized EC50) |  | Hum13 (antibody, V domains shown) VH: QVQLVQSGAEVKKPGASVKLSCKASGYTFTDYYINWVRQAPGKGLEWIARIYPGSGNTYYNEKFKGRATLTADKSTSTAYMQLSSLRSEDTAVYFCARGVYYFDYWGQGTTVTVSS VL: DIVMTQSPSSLSASVGDRVTITCKASQNVRTNVAWYQQKPGKAPKALIYSASYRYSGVPDRFSGSGSGTDFTLTISSLQPEDFADYFCQQYNSYPRTFGGGTKVEIK | Relative blocking activity, assay #3 (96-well): IC50 of inhibition of SCF-induced KIT phosphorylation, normalized to chimeric 37M antibody [4]: 1 relative to chimeric 37M antibody |
| 1.03 relative to chimeric antibody 37C (normalized EC50) | 1.14 relative to chimeric antibody 37C (normalized EC50) | 0.74 relative to chimeric antibody 37C (normalized EC50) | Hum14 (antibody, V domains shown) VH: QVQLVQSGAEVKKPGASVKVSCKASGYTFTDYYINWVRQAPGKGLEWIARIYPGSGNTYYNEKFKGRATITADKSTSTAYMELSSLRSEDTAVYFCARGVYYFDYWGQGTTVTVSS VL: DIVMTQSPSSLSASVGDRVTITCKASQNVRTNVAWYQQKPGKAPKALIYSASYRYSGVPDRFSGSGSGTDFTLTISSLQPEDFADYFCQQYNSYPRTFGGGTKVEIK | Relative blocking activity, assay #2 (24-well): IC50 of inhibition of SCF-induced KIT phosphorylation, normalized to chimeric 37M antibody [4]: 0.94 relative to chimeric 37M antibody |
| 0.74 relative to chimeric antibody 37C (normalized EC50) |  |  | Hum11 (antibody, V domains shown) VH: QVQLVQSGAELKKPGASVKLSCKASGYTFTDYYINWVKQAPGKGLEWIARIYPGSGNTYYNEKFKGRATLTAEKSTSTAYMQLSSLRSEDSAVYFCARGVYYFDYWGQGTTVTVSS VL: DIVMTQSPSSLSASVGDRVTITCKASQNVRTNVAWYQQKPGKAPKALIYSASYRYSGVPDRFSGSGSGTDFTLTISSLQPEDFADYFCQQYNSYPRTFGGGTKVEIK |  |
| 0.72 relative to chimeric antibody 37C (normalized EC50) | 1.23 relative to chimeric antibody 37C (normalized EC50) |  | Hum12 (antibody, V domains shown) VH: QVQLVQSGAEVKKPGASVKLSCKASGYTFTDYYINWVKQAPGKGLEWIARIYPGSGNTYYNEKFKGRATLTAEKSTSTAYMQLSSLRSEDTAVYFCARGVYYFDYWGQGTTVTVSS VL: DIVMTQSPSSLSASVGDRVTITCKASQNVRTNVAWYQQKPGKAPKALIYSASYRYSGVPDRFSGSGSGTDFTLTISSLQPEDFADYFCQQYNSYPRTFGGGTKVEIK |  |
| 1.02 relative to chimeric antibody 37C (normalized EC50) | 1.2 relative to chimeric antibody 37C (normalized EC50) |  | Hum16 (antibody, V domains shown) VH: QVQLVQSGAELKKPGASVKLSCKASGYTFTDYYINWVKQAPGKGLEWIARIYPGSGNTYYNEKFKGRATLTAEKSTSTAYMQLSSLRSEDSAVYFCARGVYYFDYWGQGTTVTVSS VL: DIVMTQSPSSLSASVGDRVTITCKASQNVRTNVAWYQQKPGKAPKSLIYSASYRYSGVPDRFSGSGSGTDFTLTISSLQPEDFATYYCQQYNSYPRTFGGGTKVEIK |  |
| 0.76 relative to chimeric antibody 37C (normalized EC50) | 0.87 relative to chimeric antibody 37C (normalized EC50) | 0.87 relative to chimeric antibody 37C (normalized EC50) | Hum15 (antibody, V domains shown) VH: QVQLVQSGAEVKKPGASVKVSCKASGYTFTDYYINWVRQAPGKGLEWIARIYPGSGNTYYNEKFKGRVTITADKSTSTAYMELSSLRSEDTAVYFCARGVYYFDYWGQGTTVTVSS VL: DIVMTQSPSSLSASVGDRVTITCKASQNVRTNVAWYQQKPGKAPKALIYSASYRYSGVPDRFSGSGSGTDFTLTISSLQPEDFADYFCQQYNSYPRTFGGGTKVEIK | Relative blocking activity, assay #1 (24-well): IC50 of inhibition of SCF-induced KIT phosphorylation, normalized to chimeric 37M antibody [4]: 0.98 relative to chimeric 37M antibody; Relative blocking activity, assay #3 (96-well): IC50 of inhibition of SCF-induced KIT phosphorylation, normalized to chimeric 37M antibody [4]: 0.99 relative to chimeric 37M antibody |
